From patent US20220378923A1, “BET DEGRADER” (KYOWA KIRIN CO., LTD., priority 2019, published 2022)

Columns and labels:
[1] = target: DCAF16 with HaloTag added to the C-terminal (expressed from plasmid pFC27K_DCAF16) (human) (UniProt Q9NXF7); test: NanoBRET in HEK293 cells, Nluc-BRD2 and DCAF16-HaloTag with 618 Ligand, MLN4924; 1.0 umol/L comparative compound 1 (compound P3, known bivalent BET inhibitor)
[2] = target: DCAF16 with HaloTag added to the C-terminal (expressed from plasmid pFC27K_DCAF16) (human) (UniProt Q9NXF7); test: NanoBRET in HEK293 cells, Nluc-BRD2 and DCAF16-HaloTag with 618 Ligand, MLN4924; 1.0 umol/L compound 3a
[3] = target: DCAF16 with HaloTag added to the C-terminal (expressed from plasmid pFC27K_DCAF16) (human) (UniProt Q9NXF7); test: NanoBRET in HEK293 cells, Nluc-BRD2 and DCAF16-HaloTag with 618 Ligand, MLN4924; DMSO control without test compound
[4] = target: DCAF16 with HaloTag added to the C-terminal (expressed from plasmid pFC27K_DCAF16) (human) (UniProt Q9NXF7); test: NanoBRET in HEK293 cells, Nluc-BRD2 and DCAF16-HaloTag with 618 Ligand, MLN4924; 1.0 umol/L compound 8j
[5] = target: DCAF16 with HaloTag added to the C-terminal (expressed from plasmid pFC27K_DCAF16) (human) (UniProt Q9NXF7); test: NanoBRET in HEK293 cells, Nluc-BRD2 and DCAF16-HaloTag with 618 Ligand, bortezomib; 10 umol/L compound 15f; mean of n=3
[6] = target: DCAF16 with HaloTag added to the C-terminal (expressed from plasmid pFC27K_DCAF16) (human) (UniProt Q9NXF7); test: NanoBRET in HEK293 cells, Nluc-BRD2 and DCAF16-HaloTag with 618 Ligand, MLN4924; 1.0 umol/L compound 3e
[7] = target: DCAF16 with HaloTag added to the C-terminal (expressed from plasmid pFC27K_DCAF16) (human) (UniProt Q9NXF7); test: NanoBRET in HEK293 cells, Nluc-BRD2 and DCAF16-HaloTag with 618 Ligand, bortezomib; 10 umol/L compound 8j; mean of n=3
[8] = target: DCAF16 with HaloTag added to the C-terminal (expressed from plasmid pFC27K_DCAF16) (human) (UniProt Q9NXF7); test: NanoBRET in HEK293 cells, Nluc-BRD2 and DCAF16-HaloTag with 618 Ligand, MLN4924; 1.0 umol/L compound 15f
[9] = target: DCAF16 with HaloTag added to the C-terminal (expressed from plasmid pFC27K_DCAF16) (human) (UniProt Q9NXF7); test: NanoBRET in HEK293 cells, Nluc-BRD2 and DCAF16-HaloTag with 618 Ligand, bortezomib; 10 umol/L compound 8a; mean of n=3
[10] = target: DCAF16 with HaloTag added to the C-terminal (expressed from plasmid pFC27K_DCAF16) (human) (UniProt Q9NXF7); test: NanoBRET in HEK293 cells, Nluc-BRD2 and DCAF16-HaloTag with 618 Ligand, bortezomib; 10 umol/L compound 7o; mean of n=3
[11] = target: DCAF16 with HaloTag added to the C-terminal (expressed from plasmid pFC27K_DCAF16) (human) (UniProt Q9NXF7); test: NanoBRET in HEK293 cells, Nluc-BRD2 and DCAF16-HaloTag with 618 Ligand, MLN4924; 1.0 umol/L compound 7o
[12] = target: DCAF16 with HaloTag added to the C-terminal (expressed from plasmid pFC27K_DCAF16) (human) (UniProt Q9NXF7); test: NanoBRET in HEK293 cells, Nluc-BRD2 and DCAF16-HaloTag with 618 Ligand, MLN4924; 1.0 umol/L compound 1h
[13] = target: DCAF16 with HaloTag added to the C-terminal (expressed from plasmid pFC27K_DCAF16) (human) (UniProt Q9NXF7); test: NanoBRET in HEK293 cells, Nluc-BRD2 and DCAF16-HaloTag with 618 Ligand, bortezomib; 10 umol/L compound 1h; mean of n=3
[14] = target: DCAF16 with HaloTag added to the C-terminal (expressed from plasmid pFC27K_DCAF16) (human) (UniProt Q9NXF7); test: NanoBRET in HEK293 cells, Nluc-BRD2 and DCAF16-HaloTag with 618 Ligand, bortezomib; 10 umol/L compound 3b; mean of n=3
[15] = target: DCAF16 with HaloTag added to the C-terminal (expressed from plasmid pFC27K_DCAF16) (human) (UniProt Q9NXF7); test: NanoBRET in HEK293 cells, Nluc-BRD2 and DCAF16-HaloTag with 618 Ligand, bortezomib; 10 umol/L compound 3a; mean of n=3
[16] = target: DCAF16 with HaloTag added to the C-terminal (expressed from plasmid pFC27K_DCAF16) (human) (UniProt Q9NXF7); test: NanoBRET in HEK293 cells, Nluc-BRD2 and DCAF16-HaloTag with 618 Ligand, bortezomib; 10 umol/L compound 1l; mean of n=3
[17] = target: DCAF16 with HaloTag added to the C-terminal (expressed from plasmid pFC27K_DCAF16) (human) (UniProt Q9NXF7); test: NanoBRET in HEK293 cells, Nluc-BRD2 and DCAF16-HaloTag with 618 Ligand, MLN4924; 1.0 umol/L compound 8a
[18] = target: DCAF16 with HaloTag added to the C-terminal (expressed from plasmid pFC27K_DCAF16) (human) (UniProt Q9NXF7); test: NanoBRET in HEK293 cells, Nluc-BRD2 and DCAF16-HaloTag with 618 Ligand, bortezomib; 10 umol/L compound 6k; mean of n=3
[19] = target: DCAF16 with HaloTag added to the C-terminal (expressed from plasmid pFC27K_DCAF16) (human) (UniProt Q9NXF7); test: NanoBRET in HEK293 cells, Nluc-BRD2 and DCAF16-HaloTag with 618 Ligand, bortezomib; 10 umol/L compound 12c; mean of n=3
[20] = target: DCAF16 with HaloTag added to the C-terminal (expressed from plasmid pFC27K_DCAF16) (human) (UniProt Q9NXF7); test: NanoBRET in HEK293 cells, Nluc-BRD2 and DCAF16-HaloTag with 618 Ligand, MLN4924; 1.0 umol/L compound 12c
[21] = target: DCAF16 with HaloTag added to the C-terminal (expressed from plasmid pFC27K_DCAF16) (human) (UniProt Q9NXF7); test: NanoBRET in HEK293 cells, Nluc-BRD2 and DCAF16-HaloTag with 618 Ligand, bortezomib; 10 umol/L compound 15a; mean of n=3
[22] = target: DCAF16 with HaloTag added to the C-terminal (expressed from plasmid pFC27K_DCAF16) (human) (UniProt Q9NXF7); test: NanoBRET in HEK293 cells, Nluc-BRD2 and DCAF16-HaloTag with 618 Ligand, MLN4924; 1.0 umol/L compound 7p
[23] = target: DCAF16 with HaloTag added to the C-terminal (expressed from plasmid pFC27K_DCAF16) (human) (UniProt Q9NXF7); test: NanoBRET in HEK293 cells, Nluc-BRD2 and DCAF16-HaloTag with 618 Ligand, bortezomib; 10 umol/L compound 3e; mean of n=3
[24] = target: DCAF16 with HaloTag added to the C-terminal (expressed from plasmid pFC27K_DCAF16) (human) (UniProt Q9NXF7); test: NanoBRET in HEK293 cells, Nluc-BRD2 and DCAF16-HaloTag with 618 Ligand, MLN4924; 1.0 umol/L compound 6k
[25] = target: DCAF16 with HaloTag added to the C-terminal (expressed from plasmid pFC27K_DCAF16) (human) (UniProt Q9NXF7); test: NanoBRET in HEK293 cells, Nluc-BRD2 and DCAF16-HaloTag with 618 Ligand, MLN4924; 1.0 umol/L compound 3b
[26] = target: DCAF16 with HaloTag added to the C-terminal (expressed from plasmid pFC27K_DCAF16) (human) (UniProt Q9NXF7); test: NanoBRET in HEK293 cells, Nluc-BRD2 and DCAF16-HaloTag with 618 Ligand, MLN4924; 1.0 umol/L compound 1l
[27] = target: DCAF16 with HaloTag added to the C-terminal (expressed from plasmid pFC27K_DCAF16) (human) (UniProt Q9NXF7); test: NanoBRET in HEK293 cells, Nluc-BRD2 and DCAF16-HaloTag with 618 Ligand, bortezomib; 10 umol/L compound 7p; mean of n=3
[28] = target: DCAF16 with HaloTag added to the C-terminal (expressed from plasmid pFC27K_DCAF16) (human) (UniProt Q9NXF7); test: NanoBRET in HEK293 cells, Nluc-BRD2 and DCAF16-HaloTag with 618 Ligand, bortezomib; DMSO control without test compound; mean of n=3
[29] = target: DCAF16 with HaloTag added to the C-terminal (expressed from plasmid pFC27K_DCAF16) (human) (UniProt Q9NXF7); test: NanoBRET in HEK293 cells, Nluc-BRD2 and DCAF16-HaloTag with 618 Ligand, MLN4924; 1.0 umol/L compound 15a

Sequence of DCAF16 with HaloTag added to the C-terminal (expressed from plasmid pFC27K_DCAF16) (human) (Q9NXF7 whole entry): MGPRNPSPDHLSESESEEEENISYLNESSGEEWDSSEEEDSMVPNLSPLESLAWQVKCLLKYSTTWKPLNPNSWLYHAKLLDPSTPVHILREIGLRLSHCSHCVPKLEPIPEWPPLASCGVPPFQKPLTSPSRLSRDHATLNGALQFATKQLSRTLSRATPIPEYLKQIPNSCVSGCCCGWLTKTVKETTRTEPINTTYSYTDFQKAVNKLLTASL

- BRET Ratio [1]: 1.93
- BRET Ratio [2]: 14.5
- BRET Ratio [3]: 0.99
- BRET Ratio [4]: 11.9
- BRET Ratio [5]: 5.99
- BRET Ratio [6]: 9.58
- BRET Ratio [7]: 7.07
- BRET Ratio [8]: 12.4
- BRET Ratio [9]: 7.27
- BRET Ratio [10]: 6.69
- BRET Ratio [11]: 13
- BRET Ratio [12]: 10.9
- BRET Ratio [13]: 6.84
- BRET Ratio [14]: 6.06
- BRET Ratio [15]: 8.51
- BRET Ratio [16]: 8.03
- BRET Ratio [17]: 12.4
- BRET Ratio [18]: 7.07
- BRET Ratio [19]: 7.6
- BRET Ratio [20]: 13.2
- BRET Ratio [21]: 5.88
- BRET Ratio [22]: 11.6
- BRET Ratio [23]: 5.96
- BRET Ratio [24]: 12.6
- BRET Ratio [25]: 9.69
- BRET Ratio [26]: 14.9
- BRET Ratio [27]: 6.8
- BRET Ratio [28]: 1.51
- BRET Ratio [29]: 9.59
Substance: BRD2 with an Nluc tag added to the N-terminal (expressed from plasmid pFN31A_BRD2) (from UniProt P25440 1-801)
